In PMC9482650, “Quantitative fragmentomics allow affinity mapping of interactomes” (Nature Communications, 2022):

T1: LRRC7, Q96NW7
T1 sequence (Q96NW7 1440-1537, limits assumed, looked up): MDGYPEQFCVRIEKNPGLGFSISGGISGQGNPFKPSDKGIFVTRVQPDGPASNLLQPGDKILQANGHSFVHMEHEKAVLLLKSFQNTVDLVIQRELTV

T2: DFNB31_1, Q9P202
T2 sequence (Q9P202 135-233, limits assumed, looked up): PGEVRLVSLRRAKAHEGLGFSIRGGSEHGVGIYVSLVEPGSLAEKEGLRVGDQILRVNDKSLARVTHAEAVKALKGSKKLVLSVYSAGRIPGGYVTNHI

T3: DLG3_3, Q92796
T3 sequence (Q92796 374-475, limits assumed, looked up): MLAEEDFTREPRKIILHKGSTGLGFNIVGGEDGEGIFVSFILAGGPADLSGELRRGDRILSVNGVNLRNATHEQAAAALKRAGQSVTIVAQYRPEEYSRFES

T4: SHANK1, Q9Y566
T4 sequence (Q9Y566 658-767, limits assumed, looked up): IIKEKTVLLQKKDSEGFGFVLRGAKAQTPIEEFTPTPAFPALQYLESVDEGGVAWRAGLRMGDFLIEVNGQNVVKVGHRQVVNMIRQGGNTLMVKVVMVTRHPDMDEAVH

T5: ARHGAP21, Q5T5U3
T5 sequence (Q5T5U3 45-169, limits assumed, looked up): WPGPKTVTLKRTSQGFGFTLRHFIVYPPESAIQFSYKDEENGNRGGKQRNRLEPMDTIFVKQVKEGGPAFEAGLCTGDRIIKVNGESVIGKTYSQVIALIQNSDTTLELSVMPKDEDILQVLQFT

T6: SNTG2, Q9NY99
T6 sequence (Q9NY99 68-166, limits assumed, looked up): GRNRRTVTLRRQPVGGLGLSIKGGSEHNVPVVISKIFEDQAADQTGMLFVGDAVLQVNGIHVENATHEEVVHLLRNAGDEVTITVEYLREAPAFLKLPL

T7: SYNJ2BP, P57105
T7 sequence (P57105 8-110, limits assumed, looked up): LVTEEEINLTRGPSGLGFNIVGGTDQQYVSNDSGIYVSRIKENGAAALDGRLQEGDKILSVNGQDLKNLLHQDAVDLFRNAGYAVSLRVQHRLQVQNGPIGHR

T8: MPP2, Q14168
T8 sequence (Q14168 180-250, limits assumed, looked up): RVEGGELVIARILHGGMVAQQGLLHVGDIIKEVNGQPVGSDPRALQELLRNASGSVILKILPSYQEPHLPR

T9: DLG3_2, Q92796
T9 sequence (Q92796 221-321, limits assumed, looked up): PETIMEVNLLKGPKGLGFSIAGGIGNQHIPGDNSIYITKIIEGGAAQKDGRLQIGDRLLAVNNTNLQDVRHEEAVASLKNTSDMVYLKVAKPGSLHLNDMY

T10: PTPN13_1, Q12923
T10 sequence (Q12923 1088-1188, limits assumed, looked up): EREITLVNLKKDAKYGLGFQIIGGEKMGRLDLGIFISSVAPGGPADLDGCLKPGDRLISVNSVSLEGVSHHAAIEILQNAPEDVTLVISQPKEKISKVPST

T11: SIPA1L2, Q9P2F8
T11 sequence (Q9P2F8 945-1036, limits assumed, looked up): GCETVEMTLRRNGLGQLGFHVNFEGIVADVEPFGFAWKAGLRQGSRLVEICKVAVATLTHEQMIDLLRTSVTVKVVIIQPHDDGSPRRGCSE

T12: TJP3_3, O95049
T12 sequence (O95049 375-456, limits assumed, looked up): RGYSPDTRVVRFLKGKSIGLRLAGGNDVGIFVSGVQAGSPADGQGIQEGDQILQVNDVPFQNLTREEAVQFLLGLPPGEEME


The binders below were run against T1, LRRC7, Q96NW7 (assay: holdup assay). Details: plain residues with an end cap or a label only (N-terminal biotin on a linker: ahx).
Parameters: key: below the threshold = too weak to quantify, mostly under pKd 3.1 to 4

Row | Binder | pKd
1 | KKNKDKEYYV [NRXN1, Q9ULB1] | below the threshold

The binders below were run against T2, DFNB31_1, Q9P202 (assay: holdup assay). Details: plain residues with an end cap or a label only (N-terminal biotin on a linker: ahx).
Parameters: key: below the threshold = too weak to quantify, mostly under pKd 3.1 to 4

Row | Binder | pKd
2 | KKNKDKEYYV [NRXN1, Q9ULB1] | below the threshold

These binders were tested against DLG4_2, P78352 (assay: holdup assay). Details: plain residues with an end cap or a label only (N-terminal biotin on a linker: ahx).
Parameters: key: below the threshold = too weak to quantify, mostly under pKd 3.1 to 4

Sequence of DLG4_2, P78352 (P78352 155-259): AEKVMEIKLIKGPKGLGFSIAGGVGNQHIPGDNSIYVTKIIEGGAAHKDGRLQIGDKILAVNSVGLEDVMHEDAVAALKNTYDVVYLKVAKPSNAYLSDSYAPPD

Row | Binder | pKd
3 | KKNKDKEYYV [NRXN1, Q9ULB1] | below the threshold

The binders below were run against NHERF4_2, Q86UT5 (assay: holdup assay). Details: plain residues with an end cap or a label only (N-terminal biotin on a linker: ahx).
Parameters: key: below the threshold = too weak to quantify, mostly under pKd 3.1 to 4

Sequence of NHERF4_2, Q86UT5 (Q86UT5 220-308): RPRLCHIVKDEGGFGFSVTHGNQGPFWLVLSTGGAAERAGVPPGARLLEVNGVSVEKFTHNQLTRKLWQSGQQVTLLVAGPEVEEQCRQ

Row | Binder | pKd
4 | KKNKDKEYYV [NRXN1, Q9ULB1] | below the threshold

The binders below were run against GRASP, Q7Z6J2 (assay: holdup assay). Details: plain residues with an end cap or a label only (N-terminal biotin on a linker: ahx).
Parameters: key: below the threshold = too weak to quantify, mostly under pKd 3.1 to 4

Sequence of GRASP, Q7Z6J2 (Q7Z6J2 96-193): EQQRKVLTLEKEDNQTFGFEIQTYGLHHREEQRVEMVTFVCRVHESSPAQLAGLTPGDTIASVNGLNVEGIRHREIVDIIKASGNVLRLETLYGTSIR

Row | Binder | pKd
5 | KKNKDKEYYV [NRXN1, Q9ULB1] | below the threshold

What follows are binders tested against T3, DLG3_3, Q92796 (assay: holdup assay). Details: plain residues with an end cap or a label only (N-terminal biotin on a linker: ahx).
Parameters: key: below the threshold = too weak to quantify, mostly under pKd 3.1 to 4

Row | Binder | pKd
6 | KKNKDKEYYV [NRXN1, Q9ULB1] | below the threshold

These binders were tested against T4, SHANK1, Q9Y566 (assay: holdup assay). Details: plain residues with an end cap or a label only (N-terminal biotin on a linker: ahx).
Parameters: key: below the threshold = too weak to quantify, mostly under pKd 3.1 to 4

Row | Binder | pKd
7 | KKNKDKEYYV [NRXN1, Q9ULB1] | below the threshold

These binders were tested against T5, ARHGAP21, Q5T5U3 (assay: holdup assay). Details: plain residues with an end cap or a label only (N-terminal biotin on a linker: ahx).
Parameters: key: below the threshold = too weak to quantify, mostly under pKd 3.1 to 4

Row | Binder | pKd
8 | KKNKDKEYYV [NRXN1, Q9ULB1] | below the threshold

Each binder was assayed against T6, SNTG2, Q9NY99 (assay: holdup assay). Details: plain residues with an end cap or a label only (N-terminal biotin on a linker: ahx).
Parameters: key: below the threshold = too weak to quantify, mostly under pKd 3.1 to 4

Row | Binder | pKd
9 | KKNKDKEYYV [NRXN1, Q9ULB1] | below the threshold

Each binder was assayed against AHNAK1, Q09666 (assay: holdup assay). Details: plain residues with an end cap or a label only (N-terminal biotin on a linker: ahx).
Parameters: key: below the threshold = too weak to quantify, mostly under pKd 3.1 to 4

Sequence of AHNAK1, Q09666 (Q09666 4-100): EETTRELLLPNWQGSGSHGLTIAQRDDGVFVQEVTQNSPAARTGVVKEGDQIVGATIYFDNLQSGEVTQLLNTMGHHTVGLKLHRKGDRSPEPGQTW

Row | Binder | pKd
10 | KKNKDKEYYV [NRXN1, Q9ULB1] | below the threshold

Each binder was assayed against LNX1_2, Q8TBB1 (assay: holdup assay). Details: plain residues with an end cap or a label only (N-terminal biotin on a linker: ahx).
Parameters: key: below the threshold = too weak to quantify, mostly under pKd 3.1 to 4

Sequence of LNX1_2, Q8TBB1 (Q8TBB1 371-470): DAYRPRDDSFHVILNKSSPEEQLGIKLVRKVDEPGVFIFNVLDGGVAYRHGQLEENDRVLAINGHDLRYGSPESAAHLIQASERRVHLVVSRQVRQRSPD

Row | Binder | pKd
11 | KKNKDKEYYV [NRXN1, Q9ULB1] | 3.58

These binders were tested against T7, SYNJ2BP, P57105 (assay: holdup assay). Details: plain residues with an end cap or a label only (N-terminal biotin on a linker: ahx).
Parameters: key: below the threshold = too weak to quantify, mostly under pKd 3.1 to 4

Row | Binder | pKd
12 | KKNKDKEYYV [NRXN1, Q9ULB1] | below the threshold

These binders were tested against Inadl_6, Q8NI35 (assay: holdup assay). Details: plain residues with an end cap or a label only (N-terminal biotin on a linker: ahx).
Parameters: key: below the threshold = too weak to quantify, mostly under pKd 3.1 to 4

Sequence of Inadl_6, Q8NI35 (Q8NI35 1058-1167): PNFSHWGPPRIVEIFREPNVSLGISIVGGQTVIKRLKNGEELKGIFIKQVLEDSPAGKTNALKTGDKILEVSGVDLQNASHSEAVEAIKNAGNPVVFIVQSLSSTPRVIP

Row | Binder | pKd
13 | KKNKDKEYYV [NRXN1, Q9ULB1] | below the threshold

The binders below were run against PTPN3, P26045 (assay: holdup assay). Details: plain residues with an end cap or a label only (N-terminal biotin on a linker: ahx).
Parameters: key: below the threshold = too weak to quantify, mostly under pKd 3.1 to 4

Sequence of PTPN3, P26045 (P26045 505-587): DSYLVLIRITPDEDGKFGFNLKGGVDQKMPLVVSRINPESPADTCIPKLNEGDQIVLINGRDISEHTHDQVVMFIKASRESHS

Row | Binder | pKd
14 | KKNKDKEYYV [NRXN1, Q9ULB1] | below the threshold

These binders were tested against SCRIB_3, Q14160 (assay: holdup assay). Details: plain residues with an end cap or a label only (N-terminal biotin on a linker: ahx).
Parameters: key: below the threshold = too weak to quantify, mostly under pKd 3.1 to 4

Sequence of SCRIB_3, Q14160 (Q14160 999-1103): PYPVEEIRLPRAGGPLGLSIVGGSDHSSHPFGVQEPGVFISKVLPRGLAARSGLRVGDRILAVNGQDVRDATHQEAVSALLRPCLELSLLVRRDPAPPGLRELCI

Row | Binder | pKd
15 | KKNKDKEYYV [NRXN1, Q9ULB1] | below the threshold

The binders below were run against T8, MPP2, Q14168 (assay: holdup assay). Details: plain residues with an end cap or a label only (N-terminal biotin on a linker: ahx).
Parameters: key: below the threshold = too weak to quantify, mostly under pKd 3.1 to 4

Row | Binder | pKd
16 | KKNKDKEYYV [NRXN1, Q9ULB1] | 3.69

What follows are binders tested against T9, DLG3_2, Q92796 (assay: holdup assay). Details: plain residues with an end cap or a label only (N-terminal biotin on a linker: ahx).
Parameters: key: below the threshold = too weak to quantify, mostly under pKd 3.1 to 4

Row | Binder | pKd
17 | KKNKDKEYYV [NRXN1, Q9ULB1] | below the threshold

What follows are binders tested against SCRIB_1, Q14160 (assay: holdup assay). Details: plain residues with an end cap or a label only (N-terminal biotin on a linker: ahx).
Parameters: key: below the threshold = too weak to quantify, mostly under pKd 3.1 to 4

Sequence of SCRIB_1, Q14160 (Q14160 718-814): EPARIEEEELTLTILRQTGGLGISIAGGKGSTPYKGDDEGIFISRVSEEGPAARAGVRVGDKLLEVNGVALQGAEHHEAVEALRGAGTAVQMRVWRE

Row | Binder | pKd
18 | KKNKDKEYYV [NRXN1, Q9ULB1] | below the threshold

These binders were tested against T10, PTPN13_1, Q12923 (assay: holdup assay). Details: plain residues with an end cap or a label only (N-terminal biotin on a linker: ahx).
Parameters: key: below the threshold = too weak to quantify, mostly under pKd 3.1 to 4

Row | Binder | pKd
19 | KKNKDKEYYV [NRXN1, Q9ULB1] | below the threshold

The binders below were run against FRMPD3, Q5JV73 (assay: holdup assay). Details: plain residues with an end cap or a label only (N-terminal biotin on a linker: ahx).
Parameters: key: below the threshold = too weak to quantify, mostly under pKd 3.1 to 4

Sequence of FRMPD3, Q5JV73 (Q5JV73 12-100): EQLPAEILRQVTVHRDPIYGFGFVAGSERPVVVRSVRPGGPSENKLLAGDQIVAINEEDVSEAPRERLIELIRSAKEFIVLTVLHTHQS

Row | Binder | pKd
20 | KKNKDKEYYV [NRXN1, Q9ULB1] | 3.5

What follows are binders tested against NHERF2_2, Q15599 (assay: holdup assay). Details: plain residues with an end cap or a label only (N-terminal biotin on a linker: ahx).
Parameters: key: below the threshold = too weak to quantify, mostly under pKd 3.1 to 4

Sequence of NHERF2_2, Q15599 (Q15599 142-238): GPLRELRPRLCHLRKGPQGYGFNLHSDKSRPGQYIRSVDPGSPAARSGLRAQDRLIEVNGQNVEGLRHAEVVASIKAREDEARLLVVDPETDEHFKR

Row | Binder | pKd
21 | KKNKDKEYYV [NRXN1, Q9ULB1] | below the threshold

What follows are binders tested against PDZRN4_1, Q6ZMN7 (assay: holdup assay). Details: plain residues with an end cap or a label only (N-terminal biotin on a linker: ahx).
Parameters: key: below the threshold = too weak to quantify, mostly under pKd 3.1 to 4

Sequence of PDZRN4_1, Q6ZMN7 (Q6ZMN7 213-318): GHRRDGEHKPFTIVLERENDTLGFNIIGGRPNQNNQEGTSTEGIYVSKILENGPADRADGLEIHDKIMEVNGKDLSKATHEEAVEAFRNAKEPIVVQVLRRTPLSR

Row | Binder | pKd
22 | KKNKDKEYYV [NRXN1, Q9ULB1] | below the threshold

What follows are binders tested against T11, SIPA1L2, Q9P2F8 (assay: holdup assay). Details: plain residues with an end cap or a label only (N-terminal biotin on a linker: ahx).
Parameters: key: below the threshold = too weak to quantify, mostly under pKd 3.1 to 4

Row | Binder | pKd
23 | KKNKDKEYYV [NRXN1, Q9ULB1] | below the threshold

What follows are binders tested against DLG2_2, Q15700 (assay: holdup assay). Details: plain residues with an end cap or a label only (N-terminal biotin on a linker: ahx).
Parameters: key: below the threshold = too weak to quantify, mostly under pKd 3.1 to 4

Sequence of DLG2_2, Q15700 (Q15700 189-283): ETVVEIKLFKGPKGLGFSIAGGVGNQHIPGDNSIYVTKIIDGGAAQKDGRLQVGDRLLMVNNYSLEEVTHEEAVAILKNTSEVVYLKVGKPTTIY

Row | Binder | pKd
24 | KKNKDKEYYV [NRXN1, Q9ULB1] | below the threshold

Each binder was assayed against SCRIB_2, Q14160 (assay: holdup assay). Details: plain residues with an end cap or a label only (N-terminal biotin on a linker: ahx).
Parameters: key: below the threshold = too weak to quantify, mostly under pKd 3.1 to 4

Sequence of SCRIB_2, Q14160 (Q14160 857-960): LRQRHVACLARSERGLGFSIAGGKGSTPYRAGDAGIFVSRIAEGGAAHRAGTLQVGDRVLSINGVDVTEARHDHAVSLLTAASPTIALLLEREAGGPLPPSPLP

Row | Binder | pKd
25 | KKNKDKEYYV [NRXN1, Q9ULB1] | below the threshold

These binders were tested against T12, TJP3_3, O95049 (assay: holdup assay). Details: plain residues with an end cap or a label only (N-terminal biotin on a linker: ahx).
Parameters: key: below the threshold = too weak to quantify, mostly under pKd 3.1 to 4

Row | Binder | pKd
26 | KKNKDKEYYV [NRXN1, Q9ULB1] | below the threshold
